Measured values as given in publication PMC3376909 (Molecular Microbiology, 2012).

T1: MinD-N45A (purified) (E. coli, UniProt P0AEZ3 1-270, N45A)
T1 sequence (looked up): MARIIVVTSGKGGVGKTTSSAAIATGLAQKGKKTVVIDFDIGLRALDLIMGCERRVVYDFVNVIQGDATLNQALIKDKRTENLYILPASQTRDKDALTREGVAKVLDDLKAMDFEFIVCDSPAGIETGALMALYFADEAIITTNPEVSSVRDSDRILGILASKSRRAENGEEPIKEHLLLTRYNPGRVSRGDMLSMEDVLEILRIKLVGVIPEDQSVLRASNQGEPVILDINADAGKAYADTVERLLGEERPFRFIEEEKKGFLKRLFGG


Target: T1, MinD-N45A (purified)
Assay: co-sedimentation

binding result | Binder
binds | MinE-his (purified) (natural protein, E. coli, UniProt P0A734 1-88, looked up) MALLDFFLSRKKNTANIAKERLQIIVAERRRSDAEPHYLPQLRKDILEVICKYVQIDPEMVTVQLEQKDGDISILELNVTLPEAEELK
binds | MalE-MinC (natural protein, E. coli, UniProt P18196 1-231, looked up) MSNTPIELKGSSFTLSVVHLHEAEPKVIHQALEDKIAQAPAFLKHAPVVLNVSALEDPVNWSAMHKAVSATGLRVIGVSGCKDAQLKAEIEKMGLPILTEGKEKAPRPAPTPQAPAQNTTPVTKTRLIDTPVRSGQRIYAPQCDLIVTSHVSAGAELIADGNIHVYGMMRGRALAGASGDRETQIFCTNLMAELVSIAGEYWLSDQIPAEFYGKAARLQLVENALTVQPLN
